In patent US20040224337:

Key:
[1] = biological target: FAS (UniProt P25445)
[2] = tested on: FASpTyr275 peptide (Biotin-KKEAY(PO3)DTLI-COOH)

Sequence of UniProt P25445 (P25445 26-335): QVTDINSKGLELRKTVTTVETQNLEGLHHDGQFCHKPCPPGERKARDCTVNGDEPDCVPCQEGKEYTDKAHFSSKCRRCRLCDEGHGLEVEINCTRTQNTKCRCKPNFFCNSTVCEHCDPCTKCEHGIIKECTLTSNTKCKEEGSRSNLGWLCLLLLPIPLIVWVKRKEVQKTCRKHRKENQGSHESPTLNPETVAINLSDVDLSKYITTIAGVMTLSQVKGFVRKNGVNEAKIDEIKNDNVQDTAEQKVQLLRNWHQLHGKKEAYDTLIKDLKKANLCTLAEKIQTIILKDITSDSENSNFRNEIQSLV

PTPL1/FAP-1
tyrosine phosphorylation of immunoprecipitated FAS (PY20-HRP blot after incubation in phosphatase reaction buffer) [1]: endogenous FAP-1 dephosphorylates FAS | in vitro phosphatase assay (dephosphorylation relative to vector as percent activity) [2]: FAP-1 immunoprecipitated from overexpressing cells dephosphorylates the biotinylated phospho-peptide (FASpY275) in an in vitro phosphatase assay
